Experimental findings from the DeepSol protein solubility set are described below.

A short description of the series: soluble on expression in E. coli; label from the status in PepcDB or PDB records.
For “MGSDKIHHHHHHMAISRLLVEKFRNLTAVDLDFDPCFNFLIGNNGSGKTSLLEAIFYLGHGRSFKSAVTNRIISYDEPHFTLFGQIQESQHQWSIGLQKLRQGNTLVKINGEDGNKISDLAHLLPMQLITPEGLTLLNGGPSYRRAFLDWGLFHHQTSFYSAWSNLNRLLKQRNAALAQNQPYSAIKIWDVELAKLAHQVSEWRAEYAEALSPEIEQTCQLFLPELEINVSFHQGWEKNADYYEILQQNFERDRALNYTFSGPQKADFRFKAQGLPVEDVLSRGQLKLLMCALRLAQGEHLMKEKQRHCIFLIDDFASELDQYKRALLAERLQQSGSQVFVTAITQRQLKEMQVENKKMFSVHNGIINALN”, the “soluble on expression in E. coli” value is “not soluble”. The entry for “MGSDKIHHHHHHMANLPWITIIGLGEDGPEGLPPASRDALAAAEIIMGPARHLALIGPTNAQQVEWPVPFADGIDVLRGHGGRPVAVLVSGDPFWYGAGRAMSKAFGRDAWRAIPVPSVFSLVSSRMGWPIEDTLCIGLHARPFEQLRAKLAPGRRIIATLRDGPAVSGVAHFLRDTGFGGSTLTVCEAVGGPREVVTQVSVAEALKGGFSHPVTVAVELHGTGEVIPLASGRPDALFQTDGVMTKRPVRALTLSALAPRAGEHLWDIGGGSGSIAVEWALADRTCTATVVETRADRVALIRANVESFGLTDQVTVLEGMAPGAMADAPPANAVFIGGGLSPEMLQFVTALPKGTRVVANAVTLEAEAHLAQAQGSFGGDLMRIEIAHAQPLGPKRGWTSAYPVVQWSVTL” is “not soluble”; for “MTTFIQLHLLTAYPAANLNRDDTGAPKTVVLGGATRLRISSQSLKRAWRTSELFEQALAGHIGIRTGRIAREAAQILVDSGIDAKKAVEYVKNIANCFGKVKEDKKPKDELTNAETEQLVHISPAEFEAVKALARRLAEEKRPATEEEAELLRHDRMAVDIAMFGRMLAKKTDFNVEAACQVAHAFGVSETIIEDDFFTAVDDLRQASAEDAGAGHLGETGFGSALFYTYICIDKDLLVKNLNDNEELANKTLRAFTEAALKVSPTGKQNSFASRAYASWALAEKGTDQPRSLAAAFYEPINGTDQLNVAVKRITSLHKNMNKVYGQRTDTASFDVMNQQGSMEDVLDFICA” it is “not soluble”. As to “GPGSMAEEIRTMIIGTSSAFRANVLREHFGDRFRNFVLLPPDIDEKAYRAADPFELTESIARAKMKAVLEKARQHSPPISGPAIALTFDQVVVKGDEVREKPLSTEQCRSFIASYSGGGVRTVATYALCVVGTENVLVAHNETETFFSKFGDDIVERTLERGACMNSAGGLVVEDEDMSRHVVRIVGTSYGVRGMEPAVVEKLLSQL”, the “soluble on expression in E. coli” value is listed as “soluble”. The entry for “MKKPNGTNGASSSLEPPPSTFQPLCHPLVEEVSKEVDGYFLQHWNFPNEKARKKFVAAGFSRVTCLYFPKALDDRIHFACRLLTVLFLIDDLLEYMSFEEGSAYNEKLIPISRGDVLPDRSIPVEYIIYDLWESMRAHDREMADEILEPVFLFMRAQTDRTRARPMGLGGYLEYRERDVGKELLAALMRFSMGLKLSPSELQRVREIDANCSKHLSVVNDIYSYEKELYTSKTAHSEGGILCTSVQILAQEADVTAEAAKRVLFVMCREWELRHQLLVARLSAEGLETPGLAAYVEGLEYQMSGNELWSQTTLRYSVVVD” is “soluble”; for “SAPAQEHPEATVLFSDIVGFTEIASRSSPLEVCSLLDELYQRFDAAIEEYPQLYKVETIGDAYMVVCNVTVPCDDHADVLLEFALRMHEEASRVASSLGEPVRIRVGMHSGPVVAGVVGRKMPRFCLFGDTVNTASRMESHGEAGQIHISEACYCCLRSKERFEIRERGNITVKGKGTMRTYLLSPLERT” it is “soluble”. With “MGSDKIHHHHHHVAFSAKASLATAIGRSSYWFLHTFLKGGSSLPGQIANRIDPQVLRTLGQNYDVIVVTGTNGKTLTTSLIVKVLKKKYKEVLTNPTGSNMLQGITTAFLAQPKRGHGRGIAVLEVDEANVAPVAAQLKPKAFVLTNIFRDQMDRYGEFYTTYQKILDGVTRDPEAMVIANGDAPIFSSRKLPNPVTYYGFELTANGDHKAPPNTDGVLCPVCQHILHYHAQTYANLGNYFCPHCGFKRPALTHQITEVTQMTPQSSDFMIDDQPCHIDIGGMYNIYNALAAFAVGRAFGVTPTEISQAFAYDEKVFGRQEVIQLGKKKLTLILVKNPVGLNQVLSMIETAKQPFGFAMLLNANYADGIDTSWIWDGNFEELVASQKAASYLVGGERYKDIGLRLTVAGVPEKALVSKPALDDVISTLKRSQQDQLYVLATYTAMLQLRKKLSDGGYIKAGF” the entry was “not soluble”. The entry for “MGFKQDIATIRGDLRTYAQDIFLAFLNKYPDERRYFKNYVGKSDQELKSMAKFGDHTEKVFNLMMEVADRATDSVPLASDANTLVQMKQHSSLTTGNFEKLFVALVEYMRASGQSFDSQSWDRFGKNLVSALSSAGMK” is “soluble”; for “MPPATNNSREEKEEETTDLSAGKGDCGIKAAATIYVNCELLGGAKKRKKKVYIIPKKNNISQRKSSSPSPKYFKIDENGKISRLPTGIPTVSIQREAFMTQPTTLRKMSQHPCR” it is “soluble”; for “MGSDKIHHHHHHMKTKETPEQKPEDMPIPIVDITSVEQQTVSLNLPSYGVVTPKYKTQLVTEVQGRMLTISPQFVAGGIVKKGDQLAQIEPSDYEADLMQAEATLAQATAALNEEIARGEVAKIEFKGYDKGLPPELGLRIPQLKKEQANVKYAQAALARAQRNLERTIIRAPFDGIIKARNVDLGQYVTLGTNLGELYDTSIAEIRLPISNDDLAYLESVDNPDTQVTLSASLAGKENTWIGNIIRSEGVIDADNRMVYLVAEIKDPYLREHKTQGSLPLKYGSFVNAVIKGRTVDGIVKLPRHVVRNEHVALINDNNIVEMRHVNVVRSDLQNVFIKDSLKTGERVAITHFNNMANGQLVKVIGEETKPAQTPAPESSLAATGVK” it is “not soluble”. For “MSLAAGADAGPGPEPCATLVQGKFFGYFSAAAVFPANASRCSWTLRNPDPRRYTLYMKVAKAPVPCSGPGRVRTYQFDSFLESTRTYLGVESFDEVLRLCDPSAPLAFLQASKQFLQMRRQQPPQHDGLRPRAGPPGPTDDFSVEYLVVGNRNEGHHHHHH”, the “soluble on expression in E. coli” value is reported as “not soluble”. With “MSLNELDCLETASIKIDPFTLELSRSLSTAVGDIEQRRGHVVCVDINGTVGIGEATPLPGWTERYPDCQDALRSVSTDSTSTSTSTSTSTSASEITPDTRSAAHHGIELACVDAMARHHDSSLARFLSTDTPATSIPVNATIGDCDSEQTYKKAESAVEDGYTTIKLKVGARDIESDCNRVIAARSAVGEDITLRVDANGAWNRTAAERFLETARTVDIAYIEQPLPASDLDGHALLRGRGVDIAVDESMNRTSPEQIFAADAADIIVCKPMALGGPKQTLAVARKAEAVDIDTVVTTTIDGVIARMGAVHIAAALPGSGSNARACGLATGSMLADDLTANPVSISDGEISVPTGPGLAGGALRSCCNREGHHHHHH” the entry was “soluble”. The entry for “MRILFVAAGSPATVFALAPLATAARNAGHQVVMAANQDMGPVVTGVGLPAVATTDLPIRHFITTDREGRPEAIPSDPVAQARFTGRWFARMAASSLPRMLDFSRAWRPDLIVGGTMSYVAPLLALHLGVPHARQTWDAVDADGIHPGADAELRPELSELGLERLPAPDLFIDICPPSLRPANAAPARMMRHVATSRQCPLEPWMYTRDTRQRVLVTSGSRVAKESYDRNFDFLRGLAKDLVRWDVELIVAAPDTVAEALRAEVPQARVGWTPLDVVAPTCDLLVHHAGGVSTLTGLSAGVPQLLIPKGSVLEAPARRVADYGAAIALLPGEDSTEAIADSCQELQAKDTYARRAQDLSREISGMPLPATVVTALEQLAHHHHHH” is “soluble”; for “SMAPKPGLDFSPFDFAHFGFPSDNSGKERSFQAKPSPKLGRHVYSRPKVDIQKICIGNKNIFTVSDLKPDTQYYFDVFVVNINSNMSTAYVGTFARTKEEAKQKTVELKDGKITDVFVKRKGAKFLRFAPVSSHQKVTFFIHSCLDAVQIQVRRDGKLLLSQNVEGIQQFQLRGKPKAKYLVRLKGNKKGASMLKILATTRPTKQSFPSLPEDTRIKAFDKLRTCSSATVAWLGTQERNKFCIYKKEVDDNYNEDQKKREQNQCLGPDIRKKSEKVLCKYFHSQNLQKAVTTETIKGLQPGKSYLLDVYVIGHGGHSVKYQSKVVKTRKFC” it is “soluble”; for “MAAIDLNSDLGESYGAWRMGDDEAMLAIVSSANIACGFHAGDPAGIYRTVKAAAEKGVVVGAHVSYPDRVGFGRRDLDATSEELIADVIYQIGALKGVAAAAGTTVRYVKPHGALYNRIANDAKQGQAVIDGIKAIDPSLVLMGLANAPILDLARKAGLAVVAEAFADRAYTPEGQLVSRREAGAVLHDAAKIAERMVQLAREGTLEAIDGSIIKIEAQSICVHGDSPGAVAIAQEIRRRFEADGIAIRSFASDRLEHHHHHH” it is “not soluble”. In the case of “MIQHLSSDTVVIGGGVVGLTIALTVARRHRSVILLDPEEPGSGASYGNAGTIADYAVLPVGTPDVLRQLPSLMFDRNSPLAIRHMALPSLAPWLARFLRQSLPAPARRNAQAIAALLGSATRSWEDLAVEVEGTALLNRRGCLYAYETPQAARAAETDMTFRRTLGVTVELLSAAEFAAMEPSLPPMAGAAYFPKAIFLSDPGRMVALIAEAARKAGVQIVKARATGLERRVDGVIVSGRALQIHGRRAVIAAGAHSRALALCAGDRVPLDTERGYHVEWDMAQPPLTRPTCPTARGFYLCPMAGRLRVAGTVELGGLTARPSPHRIARLVAGARAIFPHLPEPTRSWMGFRPSMPDSLPVIGPSAAGPEILHAYGHGHIGLTLAPITARIVADLLDAKTPELDIAPYLPTRFLEHHHHHH”, the “soluble on expression in E. coli” value is given as “not soluble”. The entry for “MSLEEKPKYKRILLKLSGEAFAGEQGYGIDPAFLEYISHEIKNVYDLGVQVAIVIGGGNIFRGFQGKEIGVDRATADYMGMLATVINALALQSALENHVNIPTRVLSAIEMRQVAEPYIRRRAIRHLEKGRIVIFAGGTGNPFFSTDTAAALRAAEIGAEVLIKATKVGGIYDKDPEKYPDAVLIKEISYLEVINMGLKVMDHTALTLCKENEIPIIVLNVKEKGNLRRAVLGEEVGSVVRGEGHHHHHH” is “soluble”; for “MAKARRRRVRDTWKEKKWYVIKSPKLFGENEIGTTPSRDPDFLLKRRVEATMRELTGDFSKQYVKLKFQIDSVAGSEATTRFIGHQVTTDYVRSMIRRGTSRVDAPVIVETKDGYKLKVHPLAITIRRAKSSQQKYMRQSIEEHLREIASEKTFEELVEGIVTGKIASEIYHQAKKIYPLKRVEIIKSRVLEEPALEHHHHHH” it is “soluble”; for “MELACHECGFKGEVQDFAFLCKNGCPACGESDMRQCPRCGAHVMFSRAAALEKEEMQMRDLCRELAGIERSDKPEVQKRAMELIGGLRRMNERWNIPQLGDFIKQRSRELFF” it is “not soluble”. With “FTQMVIRLHIYHLVSTVSPHNVNIDASIAARGLSGEGYRGHYFWDEIYIMPFFIQHLPEVARALLMFRYHRLDAAREYARDNGYHGAMYPWQTADDGREETPTIHYNPKSGAWDPDLSCRQRHVSIAVFYNAWRYVHDTGDTEFLNSYGAEMMFEIARFWASIATFSPDDGRYHIEGVMGPDEFHEELPGSGKPGLKDNSYTNIMTAWLLEKAIEISQRLDPAVMDGLMEKIGIGHDEFMKWRDISGKMNVLIDQNGILEQFDGYMGLKELDWEHYKLKYGNIHRMDRILKAENDSPDHYKVAKQADVLMTFYTLSPAEVCAILENLGYHVADPLRFVRDNYAFYEPRTSHGSTLSKVVHSIISSYLPNGHEMAWNWFIEALRSDIHDTQGGTTPEGLHCGVMAGTIDTVT” the entry was “not soluble”; with “MGSDKIHHHHHHMQMENSVTTRSRSPDAVRDSAVDRNAYQAKIDPHALKFQIFQEVLTIKREFKCCGGGCCGCLACIGCCQQECIIETPSMGVLGIIRQRCGCMSSNYDIMDGDGNVIFQIDGPCCCMLCGCQDKEFPIKTANNGTVVGAITKKWGGCFREAFTDADTFAVNFPGDLDVKLKGVLIGATFLIDFMEFEQQSQNRNNGV”, “not soluble”.
